IntAct's records for PubMed 19703395

B1: Transposon Tn7 transposition protein TnsE (Escherichia coli), P05845 (parent)
chain: MVRLATFNDNVQVVHIGHLFRNSGHKEWRIFVWFNPMQERKWTRFTHLPLLSRAKVVNSTTKQINKADRVIEFEASDLQRAKIIDFPNLSSFASVRNKDGAQSSFIYEAETPYSKTRYHIPQLELARSLFLINSYFCRSCLSSTALQQEFDVQYEVERDHLEIRILPSSSFPKGALEQSAVVQLLVWLFSDQDVMDSYESIFRHYQQNREIKNGVESWCFSFDPPPMQGWKLHVKGRSSNEDKDYLVEEIVGLEINAMLPSTTAISHASFQEKEAGDGSTQHIAVSTESVVDDEHLQLDDEETANIDTDTRVIEAEPTWISFSRPSRIEKSRRARKSSQTILEKEEATTSENSNLVSTDEPHLGGVLAAADVGGKQDATNYNSIFANRFAAFDELLSILKTKFACRVLFEETLVLPKVGRSRLHLCKDGSPRVIKAVGVQRNGSEFVLLEVDASDGVKMLSTKVLSGVDSETWRNDFEKIRRGVVKSSLNWPNSLFDQLYGQDGHRGVNHPKGLGELQVSREDMEGWAERVVREQFTH

Variants of: B1
Conditions: with dpo3b_ecoli dnaN

Variant	effect of a mutation on the interaction
MVRLATFNDNVQVVHIGHLFRNSGHKEWRIFVWFNPMQERKWTRFTHLPLLSRAKVVNSTTKQINKADRVIEFEASDLQRAKIIDFPNLSSFASVRNKDGAQSSFIYEAETPYSKTRYHIPQAELARSLFLINSYFCRSCLSSTALQQEFDVQYEVERDHLEIRILPSSSFPKGALEQSAVVQLLVWLFSDQDVMDSYESIFRHYQQNREIKNGVESWCFSFDPPPMQGWKLHVKGRSSNEDKDYLVEEIVGLEINAMLPSTTAISHASFQEKEAGDGSTQHIAVSTESVVDDEHLQLDDEETANIDTDTRVIEAEPTWISFSRPSRIEKSRRARKSSQTILEKEEATTSENSNLVSTDEPHLGGVLAAADVGGKQDATNYNSIFANRFAAFDELLSILKTKFACRVLFEETLVLPKVGRSRLHLCKDGSPRVIKAVGVQRNGSEFVLLEVDASDGVKMLSTKVLSGVDSETWRNDFEKIRRGVVKSSLNWPNSLFDQLYGQDGHRGVNHPKGLGELQVSREDMEGWAERVVREQFTH [L123A]	decreasing interaction
MVRLATFNDNVQVVHIGHLFRNSGHKEWRIFVWFNPMQERKWTRFTHLPLLSRAKVVNSTTKQINKADRVIEFEASDLQRAKIIDFPNLSSFASVRNKDGAQSSFIYEAETPYSKTRYHIPQLELARSLALINSYFCRSCLSSTALQQEFDVQYEVERDHLEIRILPSSSFPKGALEQSAVVQLLVWLFSDQDVMDSYESIFRHYQQNREIKNGVESWCFSFDPPPMQGWKLHVKGRSSNEDKDYLVEEIVGLEINAMLPSTTAISHASFQEKEAGDGSTQHIAVSTESVVDDEHLQLDDEETANIDTDTRVIEAEPTWISFSRPSRIEKSRRARKSSQTILEKEEATTSENSNLVSTDEPHLGGVLAAADVGGKQDATNYNSIFANRFAAFDELLSILKTKFACRVLFEETLVLPKVGRSRLHLCKDGSPRVIKAVGVQRNGSEFVLLEVDASDGVKMLSTKVLSGVDSETWRNDFEKIRRGVVKSSLNWPNSLFDQLYGQDGHRGVNHPKGLGELQVSREDMEGWAERVVREQFTH [F130A]	decreasing interaction
MVRLATFNDNVQVVHIGHLFRNSGHKEWRIFVWFNPMQERKWTRFTHLPLLSRAKVVNSTTKQINKADRVIEFEASDLQRAKIIDFPNLSSFASVRNKDGAQSSFIYEAETPYSKTRYHIPALELARSLFLINSYFCRSCLSSTALQQEFDVQYEVERDHLEIRILPSSSFPKGALEQSAVVQLLVWLFSDQDVMDSYESIFRHYQQNREIKNGVESWCFSFDPPPMQGWKLHVKGRSSNEDKDYLVEEIVGLEINAMLPSTTAISHASFQEKEAGDGSTQHIAVSTESVVDDEHLQLDDEETANIDTDTRVIEAEPTWISFSRPSRIEKSRRARKSSQTILEKEEATTSENSNLVSTDEPHLGGVLAAADVGGKQDATNYNSIFANRFAAFDELLSILKTKFACRVLFEETLVLPKVGRSRLHLCKDGSPRVIKAVGVQRNGSEFVLLEVDASDGVKMLSTKVLSGVDSETWRNDFEKIRRGVVKSSLNWPNSLFDQLYGQDGHRGVNHPKGLGELQVSREDMEGWAERVVREQFTH [Q122A]	decreasing interaction
MVRLATFNDNVQVVHIGHLFRNSGHKEWRIFVWFNPMQERKWTRFTHLPLLSRAKVVNSTTKQINKADRVIEFEASDLQRAKIIDFPNLSSFASVRNKDGAQSSFIYEAETPYSKTRYHIPQLEAARSLFLINSYFCRSCLSSTALQQEFDVQYEVERDHLEIRILPSSSFPKGALEQSAVVQLLVWLFSDQDVMDSYESIFRHYQQNREIKNGVESWCFSFDPPPMQGWKLHVKGRSSNEDKDYLVEEIVGLEINAMLPSTTAISHASFQEKEAGDGSTQHIAVSTESVVDDEHLQLDDEETANIDTDTRVIEAEPTWISFSRPSRIEKSRRARKSSQTILEKEEATTSENSNLVSTDEPHLGGVLAAADVGGKQDATNYNSIFANRFAAFDELLSILKTKFACRVLFEETLVLPKVGRSRLHLCKDGSPRVIKAVGVQRNGSEFVLLEVDASDGVKMLSTKVLSGVDSETWRNDFEKIRRGVVKSSLNWPNSLFDQLYGQDGHRGVNHPKGLGELQVSREDMEGWAERVVREQFTH [L125A]	decreasing interaction

The next lines start with the values.

effect of a mutation on the interaction	Variant
decreasing interaction	MVRLATFNDNVQVVHIGHLFRNSGHKEWRIFVWFNPMQERKWTRFTHLPLLSRAKVVNSTTKQINKADRVIEFEASDLQRAKIIDFPNLSSFASVRNKDGAQSSFIYEAETPYSKTRYHIPQLELARSAFLINSYFCRSCLSSTALQQEFDVQYEVERDHLEIRILPSSSFPKGALEQSAVVQLLVWLFSDQDVMDSYESIFRHYQQNREIKNGVESWCFSFDPPPMQGWKLHVKGRSSNEDKDYLVEEIVGLEINAMLPSTTAISHASFQEKEAGDGSTQHIAVSTESVVDDEHLQLDDEETANIDTDTRVIEAEPTWISFSRPSRIEKSRRARKSSQTILEKEEATTSENSNLVSTDEPHLGGVLAAADVGGKQDATNYNSIFANRFAAFDELLSILKTKFACRVLFEETLVLPKVGRSRLHLCKDGSPRVIKAVGVQRNGSEFVLLEVDASDGVKMLSTKVLSGVDSETWRNDFEKIRRGVVKSSLNWPNSLFDQLYGQDGHRGVNHPKGLGELQVSREDMEGWAERVVREQFTH [L129A]
decreasing interaction	MVRLATFNDNVQVVHIGHLFRNSGHKEWRIFVWFNPMQERKWTRFTHLPLLSRAKVVNSTTKQINKADRVIEFEASDLQRAKIIDFPNLSSFASVRNKDGAQSSFIYEAETPYSKTRYHIPQLELARSLFAINSYFCRSCLSSTALQQEFDVQYEVERDHLEIRILPSSSFPKGALEQSAVVQLLVWLFSDQDVMDSYESIFRHYQQNREIKNGVESWCFSFDPPPMQGWKLHVKGRSSNEDKDYLVEEIVGLEINAMLPSTTAISHASFQEKEAGDGSTQHIAVSTESVVDDEHLQLDDEETANIDTDTRVIEAEPTWISFSRPSRIEKSRRARKSSQTILEKEEATTSENSNLVSTDEPHLGGVLAAADVGGKQDATNYNSIFANRFAAFDELLSILKTKFACRVLFEETLVLPKVGRSRLHLCKDGSPRVIKAVGVQRNGSEFVLLEVDASDGVKMLSTKVLSGVDSETWRNDFEKIRRGVVKSSLNWPNSLFDQLYGQDGHRGVNHPKGLGELQVSREDMEGWAERVVREQFTH [L131A]
